The values that follow come from US11306156.

The target of assay [1] is tissue factor (TF) antigen (UniProt P13726). Description: SPR; against wild-type D3H44 Fab. In general terms: Surface plasmon resonance follows binding to a sensor surface in real time, without labels.
Assay [2] shares this target. Description: SPR (ProteOn), Fab captured on anti-penta His, TF as analyte, 1:1 fit.
For assay [3] the target is unchanged. Briefly: SPR; log ratio against wild-type D3H44 Fab.
The target is the same in assay [4]. Description: SPR (ProteOn XPR36): Fab captured via His tag on anti-penta-His, TF as analyte, 1:1 fit.
The target is the same in assay [5]. Briefly: SPR; reference wild-type D3H44 Fab.
For assay [6] the target is unchanged. Description: SPR, Fab captured by anti-His, TF as analyte.

tissue factor (TF) antigen, sequence (P13726 33-251 limits assumed): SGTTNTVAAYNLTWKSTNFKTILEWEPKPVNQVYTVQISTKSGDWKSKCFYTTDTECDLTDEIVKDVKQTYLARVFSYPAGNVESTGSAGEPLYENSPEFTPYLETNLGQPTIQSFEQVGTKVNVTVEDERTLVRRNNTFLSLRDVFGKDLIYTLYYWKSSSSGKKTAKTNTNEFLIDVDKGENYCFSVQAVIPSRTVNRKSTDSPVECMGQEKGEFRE

The term Kd denotes the free concentration of one partner at which half of the binding sites on the other are occupied at equilibrium, for simple one-to-one binding. A low value points to a tighter complex. In assay [1], “D3H44 Fab heterodimer, H1 A139G_F174V_V190A / L1 S131T_L135F_S176F_T178F (H1L1 of LCCA set 9051)” registered a Change in KD with respect to wild type (-(log(KD design) - log(KD wt))) of 0.06. For the same substance, the Kd in assay [2] was determined as 140 pM.
“D3H44 Fab heterodimer, H1 A139G_V190A / L1 L135W_S176L (H1L1 of LCCA set 9056)”: the Change in KD with respect to wild type (-(log(KD design) - log(KD wt))) in assay [1] is -0.02. In addition, the Kd in assay [2] is 160 pM.
Consider “D3H44 Fab heterodimer, H1 A139W_S188L / L1 F116A_L135V (H1L1 of LCCA sets 9063 and 9062)”, for which the Change in KD with respect to wild type (-(log(KD design) - log(KD wt))) in assay [1] was -0.02. Besides, the Kd in assay [2] was determined as 170 pM.
The like results for “D3H44 Fab heterodimer, H1 K145T_Q179E / L1 S131K (H1L1 of LCCA set 9082)” were, in that order, -0.01 and 160 pM.
The matching figures for “D3H44 Fab heterodimer, H1 L124E_H172T / L1 V133G_N137K_S174R_S176R (H1L1 of LCCA set 9120)”: 0.08 and 130 pM.
The matching figures for “D3H44 Fab heterodimer, H1 L124E_L143D_K145M / L1 Q124K_V133G_S176R_T178K (H1L1 of LCCA set 9178)”: -0.15 and 220 pM.
Turning to “D3H44 Fab heterodimer, H1 L124E_L143D_K145T / L1 Q124K_V133G_S176R_T178K (H1L1 of LCCA sets 9216 and 9220)”, the Change in KD with respect to wild type (-(log(KD design) - log(KD wt))) in assay [1] is -0.08. The substance also yielded a Kd in assay [2] of 190 pM.
The matching figures for “D3H44 Fab heterodimer, H1 L124E_L143E_K145M / L1 Q124K_V133G_S176R_T178K (H1L1 of LCCA sets 9260 and 9263)”: -0.19 and 240 pM.
The matching figures for “D3H44 Fab heterodimer, H1 L124R_D146N_Q179K / L1 Q124E_V133G_S176D_T178E_T180E (H1L1 of LCCA set 9351)”: -0.1 and 200 pM.
The like results for “D3H44 Fab heterodimer, H1 L124R_S186K / L1 V133G_S176D_T178D_T180E (H1L1 of LCCA set 9473)” were, in that order, -0.07 and 180 pM.
In assay [1], “D3H44 Fab heterodimer, H1 L143E_K145T_Q179D / L1 Q124R_Q160K_T178R (H1L1 of LCCA set 9620)” came in with a Change in KD with respect to wild type (-(log(KD design) - log(KD wt))) of 0.39. In assay [2], this substance displayed a dissociation constant (Kd) of 60 pM.
The like results for “D3H44 Fab heterodimer, H1 Q179K / L1 Q124E_Q160E_T180E (H1L1 of LCCA set 9763)” were, in that order, -0.31 and 320 pM.
The matching figures for “D3H44 Fab heterodimer, H1 Q179K / L1 Q124E_T178E (H1L1 of LCCA set 9783)”: 0.05 and 140 pM.
On to “D3H44 Fab heterodimer, H1 Q179K / L1 Q124E_T180E (H1L1 of LCCA sets 9796 and 9789)”, for which, in assay [1], the Change in KD with respect to wild type (-(log(KD design) - log(KD wt))) was found to be 0.16. The dissociation constant (Kd) in assay [2] was determined as 110 pM.
The matching figures for “D3H44 Fab heterodimer, H1 S186K / L1 Q124E_T180E (H1L1 of LCCA set 9862)”: 0.46 and 60 pM.
In assay [1], “D3H44 Fab heterodimer, H1 S186R / L1 Q124E_T180E (H1L1 of LCCA set 9900)” gave a Change in KD with respect to wild type (-(log(KD design) - log(KD wt))) of 0.36. The same substance displayed a Kd in assay [2] of 70 pM.
Regarding “D3H44 Fab heterodimer, H S186R / L Q124E_S176L_T180E (H1L1 of LCCA set 9886)”, the Change in KD with respect to wild type (-(log(KD design) - log(KD wt))) in assay [3] is -0.06. Moreover, the equilibrium dissociation constant (Kd) in assay [4] was determined as 180 pM.
For “D3H44 Fab heterodimer, H S186R / L Q124E_T180E (H1L1 of LCCA sets 9891, 9901, 9898 and 9893)”, the Change in KD with respect to wild type (-(log(KD design) - log(KD wt))) in assay [3] was 0.36. In assay [4], this substance yielded a dissociation constant Kd of 70 pM.
With “D3H44 Fab heterodimer, heavy L124E_L143D_K145M / light Q124K_V133G_Q160K_S176R”, the Change in KD of h1|1 Fab heterodimer with respect to wild type (-(log(KD design) - log(KD wt))) in assay [5] was -0.24. Further, the Kd in assay [6] stood at 270 pM.
As to “D3H44 Fab heterodimer, heavy L124E_L143D_K145M / light Q124K_V133G_S176R_T178K”, the Change in KD of h1|1 Fab heterodimer with respect to wild type (-(log(KD design) - log(KD wt))) in assay [5] is -0.15. For the same substance, the Kd in assay [6] was determined as 220 pM.
Consider “D3H44 Fab heterodimer, heavy L124E_L143D_K145T / light Q124K_V133G_S176R_T178K”, for which, in assay [5], the Change in KD of h1|1 Fab heterodimer with respect to wild type (-(log(KD design) - log(KD wt))) was -0.08. The substance also returned a Kd in assay [6] of 190 pM.
The like results for “D3H44 Fab heterodimer, heavy L124E_L143D_K145T / light Q124K_V133G_S176R_T178R” were, in that order, -0.02 and 160 pM.
As to “D3H44 Fab heterodimer, heavy L124E_L143E_K145M / light Q124K_V133G_Q160K_S176R”, the Change in KD of h1|1 Fab heterodimer with respect to wild type (-(log(KD design) - log(KD wt))) in assay [5] is -0.26. Further, the Kd in assay [6] came to 280 pM.
As to “D3H44 Fab heterodimer, heavy L124E_L143E_K145M / light Q124K_V133G_S176R_T178K”, the Change in KD of h1|1 Fab heterodimer with respect to wild type (-(log(KD design) - log(KD wt))) in assay [5] is -0.19. The substance also came in with a dissociation constant (Kd) in assay [6] of 240 pM.
On to “D3H44 Fab heterodimer, heavy L124E_L143E_K145M / light Q124K_V133G_S176R_T178R”, for which the Change in KD of h1|1 Fab heterodimer with respect to wild type (-(log(KD design) - log(KD wt))) in assay [5] is -0.29. The dissociation constant (Kd) in assay [6] was 310 pM.
The matching figures for “D3H44 Fab heterodimer, heavy L124E_L143E_K145T / light Q124K_V133G_Q160K_S176R”: -0.12 and 200 pM.
In the case of “D3H44 Fab heterodimer, heavy L124R_Q179K / light Q124E_V133G_S176D_T178E_T180E”, the Change in KD of h2|2 Fab heterodimer with respect to wild type (-(log(KD design) - log(KD wt))) in assay [5] was -0.15. This substance showed an equilibrium dissociation constant (Kd) in assay [6] of 220 pM.
The like results for “D3H44 Fab heterodimer, heavy L124R_Q179K / light V133G_S176D_T178E_T180E” were, in that order, -0.16 and 230 pM.
For the substance “D3H44 Fab heterodimer, heavy L124R_S186K / light Q124E_V133G_S176D_T178D_T180E”, in assay [5], the Change in KD of h2|2 Fab heterodimer with respect to wild type (-(log(KD design) - log(KD wt))) was -0.23. Moreover, the Kd in assay [6] is 260 pM.
The matching figures for “D3H44 Fab heterodimer, heavy L124R_S186K / light V133G_S176D_T178D_T180E”: -0.07 and 180 pM.
For the substance “D3H44 Fab heterodimer, heavy L124R_S186R / light Q124E_V133G_S176D_T178D_T180E”, in assay [5], the Change in KD of h2|2 Fab heterodimer with respect to wild type (-(log(KD design) - log(KD wt))) was -0.21. For the same substance, the dissociation constant (Kd) in assay [6] is 260 pM.
In the case of “D3H44 Fab heterodimer, heavy L124R_S186R / light V133G_S176D_T178E_T180E”, the Change in KD of h2|2 Fab heterodimer with respect to wild type (-(log(KD design) - log(KD wt))) in assay [5] was -0.15. Further, the Kd in assay [6] was determined as 220 pM.
